In paper PMC4174003 (2014):

Columns and labels:
PCSK9 [1] = molecular target: T1, PCSK9 (Mus musculus, UniProt Q80W65); assay: SPR
T1 chain: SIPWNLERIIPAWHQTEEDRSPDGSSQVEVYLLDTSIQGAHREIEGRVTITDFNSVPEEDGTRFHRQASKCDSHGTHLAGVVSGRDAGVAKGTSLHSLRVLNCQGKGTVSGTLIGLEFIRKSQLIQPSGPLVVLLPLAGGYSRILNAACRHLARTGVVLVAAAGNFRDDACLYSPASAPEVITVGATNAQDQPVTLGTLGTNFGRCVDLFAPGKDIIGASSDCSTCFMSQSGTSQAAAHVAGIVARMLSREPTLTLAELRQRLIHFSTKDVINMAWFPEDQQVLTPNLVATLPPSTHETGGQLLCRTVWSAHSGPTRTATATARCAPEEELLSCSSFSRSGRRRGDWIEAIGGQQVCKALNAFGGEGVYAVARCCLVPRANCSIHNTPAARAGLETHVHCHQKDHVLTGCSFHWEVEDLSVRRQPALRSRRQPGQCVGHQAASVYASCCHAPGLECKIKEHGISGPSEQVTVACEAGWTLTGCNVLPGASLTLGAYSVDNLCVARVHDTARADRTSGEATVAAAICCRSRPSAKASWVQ

PCSK9 [2] = molecular target: PCSK9 (Homo sapiens, UniProt Q8NBP7); assay: SPR
Chain of PCSK9 (Homo sapiens, UniProt Q8NBP7) (Q8NBP7 153-692): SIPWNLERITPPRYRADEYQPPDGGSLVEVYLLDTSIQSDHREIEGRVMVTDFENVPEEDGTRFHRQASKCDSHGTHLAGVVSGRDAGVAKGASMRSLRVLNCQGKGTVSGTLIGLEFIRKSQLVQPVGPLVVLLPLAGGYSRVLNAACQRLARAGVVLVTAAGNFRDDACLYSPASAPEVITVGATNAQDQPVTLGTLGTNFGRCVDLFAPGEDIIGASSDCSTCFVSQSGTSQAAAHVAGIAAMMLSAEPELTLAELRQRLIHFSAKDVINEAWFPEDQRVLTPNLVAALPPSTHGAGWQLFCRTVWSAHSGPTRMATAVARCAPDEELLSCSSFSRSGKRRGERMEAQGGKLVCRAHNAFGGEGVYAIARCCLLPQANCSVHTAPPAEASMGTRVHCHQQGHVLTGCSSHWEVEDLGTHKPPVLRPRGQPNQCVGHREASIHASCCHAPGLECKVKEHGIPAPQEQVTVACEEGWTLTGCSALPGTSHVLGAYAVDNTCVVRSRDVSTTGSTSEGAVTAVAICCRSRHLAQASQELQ

Kd (PCSK9 [1]): 2.6 nM
Kd (PCSK9 [2]): 0.58 nM
B1: alirocumab (antibody, V domains shown)
VH: EVQLVESGGGLVQPGGSLRLSCAASGFTFNNYAMNWVRQAPGKGLDWVSTISGSGGTTNYADSVKGRFIISRDSSKHTLYLQMNSLRAEDTAVYYCAKDSNWGNFDLWGRGTLVTVSS
VL: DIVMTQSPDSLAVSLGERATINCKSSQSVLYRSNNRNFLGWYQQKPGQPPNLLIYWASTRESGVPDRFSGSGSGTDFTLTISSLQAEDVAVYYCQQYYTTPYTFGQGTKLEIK
